# Patent US20160264664A1 (Ablynx, published 2016)
# T1: mouse P2X7 (mouse, UniProt Q9Z1M0 1-595)
# T1 sequence: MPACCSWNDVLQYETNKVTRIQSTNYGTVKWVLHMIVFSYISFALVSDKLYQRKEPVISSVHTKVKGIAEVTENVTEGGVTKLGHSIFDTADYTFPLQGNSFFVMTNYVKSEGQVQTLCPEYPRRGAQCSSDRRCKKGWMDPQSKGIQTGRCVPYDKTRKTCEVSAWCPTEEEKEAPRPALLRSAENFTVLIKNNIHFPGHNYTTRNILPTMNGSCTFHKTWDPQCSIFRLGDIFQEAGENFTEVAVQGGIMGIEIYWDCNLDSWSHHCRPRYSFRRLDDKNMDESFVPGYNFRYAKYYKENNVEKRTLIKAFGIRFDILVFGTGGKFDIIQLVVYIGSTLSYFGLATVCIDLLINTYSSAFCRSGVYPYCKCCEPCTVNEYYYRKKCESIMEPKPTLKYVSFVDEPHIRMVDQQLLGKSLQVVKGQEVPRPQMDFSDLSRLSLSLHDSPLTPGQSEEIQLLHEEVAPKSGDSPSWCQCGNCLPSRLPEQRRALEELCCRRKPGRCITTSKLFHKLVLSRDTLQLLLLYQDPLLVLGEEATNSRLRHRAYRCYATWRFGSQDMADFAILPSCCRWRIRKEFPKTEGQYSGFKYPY
# T2: human P2X4 (human, UniProt Q99571 1-388)
# T2 construct: whole, on cells; also called hP2X4
# T2 sequence (looked up): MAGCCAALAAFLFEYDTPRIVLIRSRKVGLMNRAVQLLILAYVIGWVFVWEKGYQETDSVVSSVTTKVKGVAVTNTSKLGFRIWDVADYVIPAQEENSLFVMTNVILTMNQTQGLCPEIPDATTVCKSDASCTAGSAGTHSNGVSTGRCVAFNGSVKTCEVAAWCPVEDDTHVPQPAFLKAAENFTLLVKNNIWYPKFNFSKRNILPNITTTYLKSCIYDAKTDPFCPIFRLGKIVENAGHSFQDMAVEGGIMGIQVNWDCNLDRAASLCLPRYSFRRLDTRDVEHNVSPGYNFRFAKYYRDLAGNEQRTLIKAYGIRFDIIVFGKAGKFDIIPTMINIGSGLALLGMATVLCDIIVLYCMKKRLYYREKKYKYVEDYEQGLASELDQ
# T3: human P2X7 (human, UniProt Q99572 1-595)
# T3 construct: on transfected Hek293 cells; also called hP2X7
# T3 sequence: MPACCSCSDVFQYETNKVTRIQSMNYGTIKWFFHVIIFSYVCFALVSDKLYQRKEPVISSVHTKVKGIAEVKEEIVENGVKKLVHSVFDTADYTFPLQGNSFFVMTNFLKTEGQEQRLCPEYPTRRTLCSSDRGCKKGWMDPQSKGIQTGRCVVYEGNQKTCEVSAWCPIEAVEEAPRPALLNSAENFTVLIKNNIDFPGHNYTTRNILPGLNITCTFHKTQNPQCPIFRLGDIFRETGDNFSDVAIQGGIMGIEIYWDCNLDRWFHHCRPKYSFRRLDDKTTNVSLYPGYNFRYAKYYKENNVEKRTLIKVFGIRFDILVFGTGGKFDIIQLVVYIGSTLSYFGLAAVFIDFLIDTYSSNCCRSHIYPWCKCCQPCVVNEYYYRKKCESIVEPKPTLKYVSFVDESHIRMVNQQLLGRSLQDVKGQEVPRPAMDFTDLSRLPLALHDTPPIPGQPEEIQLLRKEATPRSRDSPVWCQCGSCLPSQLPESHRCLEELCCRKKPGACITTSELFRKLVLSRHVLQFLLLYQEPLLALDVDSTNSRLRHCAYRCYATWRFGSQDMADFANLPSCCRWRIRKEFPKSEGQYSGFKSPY
# T4: mouse P2X7 mutant R151A (mouse, UniProt Q9Z1M0 1-595)
# T4 construct: transiently transfected Hek293 cells
# T4 sequence: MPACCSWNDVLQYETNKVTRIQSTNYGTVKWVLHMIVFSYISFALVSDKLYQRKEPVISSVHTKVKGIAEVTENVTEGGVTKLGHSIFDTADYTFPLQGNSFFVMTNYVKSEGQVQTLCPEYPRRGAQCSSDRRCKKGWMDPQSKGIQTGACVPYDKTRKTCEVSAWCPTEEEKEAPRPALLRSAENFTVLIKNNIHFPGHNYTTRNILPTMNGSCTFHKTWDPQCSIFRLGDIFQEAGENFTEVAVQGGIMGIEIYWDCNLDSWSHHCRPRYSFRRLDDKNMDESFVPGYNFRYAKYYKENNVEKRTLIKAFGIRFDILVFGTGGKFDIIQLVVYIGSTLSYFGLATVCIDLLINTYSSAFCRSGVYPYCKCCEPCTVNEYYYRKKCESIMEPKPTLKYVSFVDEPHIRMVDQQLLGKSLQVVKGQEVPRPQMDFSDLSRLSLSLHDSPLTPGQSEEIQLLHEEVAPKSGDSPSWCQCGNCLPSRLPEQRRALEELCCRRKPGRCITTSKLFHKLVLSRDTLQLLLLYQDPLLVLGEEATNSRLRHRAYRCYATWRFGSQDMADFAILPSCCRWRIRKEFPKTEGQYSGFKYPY
# Assays:
# mouse P2X7 [1] = target: T1, mouse P2X7; assay: cell-based or functional assay
# human P2X4 = target: T2, human P2X4; assay: flow cytometry, Nanobody pre-incubated with anti-Myc-FITC
# human P2X7 = target: T3, human P2X7; assay: as above
# mouse P2X7 [2] = target: T1, mouse P2X7; assay: flow cytometry, periplasmic extract pre-incubated with anti-myc-FITC, on mP2X7-Hek293 cells;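 also: periplasmic extract diluted 10-fold and premixed 45 min at 4 °C with FITC anti-myc antibody, giving pseudo-bivalent Nanobodies, before binding to the cells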
# Protocol: Ten-fold diluted PE were pre-incubation with 0.5 μg anti-myc FITC-conjugated antibodies (AbD Serotec, cat no. MCA2200F) (creating pseudo-bivalent Nanobodies in order to increase binding strength) in 0.1 ml PBS/10% FCS for 45 minutes at 4° C. […] Alternatively, sequential staining of 10-fold diluted PE with anti-myc FITC-conjugated antibodies was done after incubation with the cells.
# mouse P2X7 [3] = target: T1, mouse P2X7; assay: phage ELISA, mP2X7-CHO vs control CHO cells
# Protocol: (§1) Sub-confluent cells were rinsed with PBS and fixed using 4% paraformaldehyde in PBS for 10 minutes at RT. Fixed cells were washed three times with PBS, and blocked with 2% BSA in PBS for 2 hours. Following blocking, 10-fold diluted culture supernatant containing phage was added and incubated for 1 hour. Cell-bound phage was detected via mouse anti-M13-HRP-conjugate (GE Healthcare, Cat nr. E2886). Rat mAb Hano43 was used as positive control.
# mouse P2X7 [4] = target: T1, mouse P2X7; assay: phage ELISA on fixed mP2X7-CHO vs untransfected CHO cells;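 also: phage culture supernatant diluted 10-fold, applied for 1 h to paraformaldehyde-fixed, BSA-blocked cells in 96-well plates, with bound phage read via HRP-linked anti-M13 antibody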
# Protocol: as §1
# mouse P2X7 mutant R151A = target: T4, mouse P2X7 mutant R151A; assay: flow cytometry, 1 µM Nanobody on transiently transfected Hek293 cells, normalised to Hano43 staining
# Protocol: For flow cytometric assays, detection of Nanobodies was performed via anti-Myc and subsequent goat anti-mouse-PE conjugate, while an estimation of P2X7 expression densities was obtained via staining with rat monoclonal Hano43 followed by secondary anti-rat-PE conjugate.
# mouse P2X7 [5] = target: T1, mouse P2X7; assay: phage ELISA on fixed mP2X7-CHO vs untransfected CHO cells (minimally 2-fold)
# Protocol: as §1
# mouse P2X7 [6] = target: T1, mouse P2X7; assay: phage ELISA on fixed mP2X7-CHO vs untransfected CHO cells; phage ELISA, phage-displayed Nanobody, Cho P2X7 vs wt signal ratio
# Protocol: as §1
# mouse P2X7 [7] = target: T1, mouse P2X7; assay: flow cytometry, purified Nanobody titrated on mP2X7-CHO cells
Binder,binding result (human P2X4),binding result (human P2X7),Fold Cho P2X7/wt (phage ELISA) (mouse P2X7 [4]),reduction of binding against WT mP2X7 (mouse P2X7 mutant R151A),binding result (mouse P2X7 [5]),other results
"P2X7PMP8G12 (VHH, family 5, 3; on phage or c-myc/His6-tagged in assays; also called 8012) VHH: KVQLVESGGGLVQAGGSLRLSCAASGSFFRVNNMAWYRQGPGKQRELVADITRGDRTNYADSVNGRFTISRDNVRNTVYLQMNGLKPEDTAVYYCYATIELGVLEPRDYWGQGTQVTVSS",no binding (tested: 147 nM),no binding (tested: 147 nM),36 fold,> 90%,,"ATP IC50 by 2 uM NB (head prints 'mM'; ligand titration at fixed Nanobody, CD62L shedding, Yac-1 cells) (mouse P2X7 [1]): 0.29 mM; IC50 (nM) against 20 uM NAD (CD62L shedding, Yac-1 cells) (mouse P2X7 [1]): 82 nM; IC50 (nM) against 100 uM ATP (CD62L shedding, Yac-1 cells) (mouse P2X7 [1]): 55 nM; MFI FACS (pre-Myc incubation) (mouse P2X7 [2]): 166 MFI; absorption ratio (ELISA) (mouse P2X7 [3]): 36 ratio"
"P2X7PMP7H6 (VHH, family 11; on phage or c-myc/His6-tagged in assays) VHH: EVQLVESGGGLVQPGGSLRLSCVVSGSMYRIDNMGWYRQAPGKQRELVATVTRGDITNYADSVKGRFTIGRDNAKNTVYLQMNSLKPADTAVYYCNIDSYIIGAGVRDYWGRGTQVTVSS",no binding (tested: 147 nM),no binding (tested: 147 nM),23 fold,> 90%,,"ATP IC50 by 2 uM NB (head prints 'mM'; ligand titration at fixed Nanobody, CD62L shedding, Yac-1 cells) (mouse P2X7 [1]): 0.494 mM; IC50 (nM) against 20 uM NAD (CD62L shedding, Yac-1 cells) (mouse P2X7 [1]): 208 nM; IC50 (nM) against 100 uM ATP (CD62L shedding, Yac-1 cells) (mouse P2X7 [1]): 123 nM"
"P2X7PMP20B8 (VHH, family 4; on phage or c-myc/His6-tagged in assays) VHH: EVQLVESGGGLVQAGGSLRLSCAASGRTVSDYGMGWFRQAPGKECEFVASINWSGTYTRYIDSVEGRFTISRDNTENTLYLQMNNLKAEDTAVYYCAYFLGPNWYSDYGRPSSYDFYGQGTQVTVSS",,,,,binds,
"P2X7PMP7E8 (VHH, family 8; on phage or c-myc/His6-tagged in assays) VHH: EVQLVESGGGLVQAGGSLRLSCAASGRTFSSSPVGWFRQAPGKERDFVATISWNGVDTHYLDSVKGRFTISRDNALNTVHLQMHILKPEDTALYYCAASTSGSAYLPYRVYQYDSWGQGTQVTVSS",,,,,binds,
"P2X7PMP7F5 (VHH, family 8; on phage or c-myc/His6-tagged in assays) VHH: EVQLVESGGGLVQAGGSLRLSCAASGRTFSSSPVGWFRQAPGKERDFVATISWNGVDTHYLDSVKGRFTISRDNALNTVHLQMHILKPEDTALYYCAASTSGSAYLPYRVHQYDSWGQGTQVTVSS",,,,,binds,
"P2X7PMP13F4 (VHH, family 12; on phage or c-myc/His6-tagged in assays) VHH: EVQLVESGGGLVQSGGSLRLSCAGSGFSYYIIGWFRQAPGKEREEVSCIRVTDGSTYHTNSVKGRFTMSRDNAENTVYLQMNSLKPEDTAVYSCATECQRWAYPNRIGARGQGTQVTVSS",,,,,binds,
"P2X7PMP13E9 (VHH, family 22; on phage or c-myc/His6-tagged in assays) VHH: EVQLVESGGGLVQPGESLRLSCTASRFDLDYYDIAWFRQAPGKEREGVSCSFTNDGSTYYADSVKGRFTMSRNNDHRTVYLQMTSLQPEDTAVYTCAVGPLTRRRQCVPGDFSMDFWGEGTLVTVSS",,,,,binds,
"P2X7PMP2C4 (VHH, family 1; on phage or c-myc/His6-tagged in assays) VHH: EVQLVESGGDVVQAGGSLRLSCLASGFTFDDYAIGWFRQAPGKEREGISCISSTGNVFYADSVKGRFTISSDKEKNTLYLQMNSLKPEDTAVYHCAAGHFTVDSGKVLLRTDISSWGQGTQVTVSS",no binding (tested: 147 nM),no binding (tested: 147 nM),,,,Fold Cho P2X7/wt (phage ELISA) (mouse P2X7 [6]): 4 fold
"P2X7PMP7E2 (VHH, family 3; on phage or c-myc/His6-tagged in assays) VHH: EVQLVESGGGLVQAGGSLRLSCAAPERTYSMGWFRQAPGKEREFVAGSGWDGIPTRYADSVKGRFTISRDNAKNTVSLQMSGLKPEDTAIYYCATGTSVYHYQYWGQGTQVTVSS",no binding (tested: 147 nM),no binding (tested: 147 nM),25 fold,> 90%,,EC50 (mouse P2X7 [7]): 4.3 nM
"P2X7PMP7D5 (VHH, family 14; on phage or c-myc/His6-tagged in assays) VHH: EVQLVESGGGLVQAGDSLRLSCAASGRTFSSVAVGWFRQAPGKERDFVAWISWSGDSTYYADSVKGRFTASRDNVNNTVYLQMNSLKPEDTADYYCAAAWKYDRASYDFPEAYDYWGQGTQVTVSS",no binding (tested: 147 nM),no binding (tested: 147 nM),14 fold,> 90%,,EC50 (mouse P2X7 [7]): 3 nM
"P2X7PMP6B7 (VHH, family 16; on phage or c-myc/His6-tagged in assays) VHH: EVQLVESGGGLVQAGGSLRLSCVVSGRTFSAMGWFRQAPGKEREFVATVGWNPMNSYYGDSVKGRFTIFRDNAKNTVYLQMNSLKPEDTAVYYCAGSGSLLDVTSEAVYTDWGQGTQVTVSS",no binding (tested: 147 nM),no binding (tested: 147 nM),24 fold,> 90%,,
"P2X7PMP13F6 (VHH, family 20; on phage or c-myc/His6-tagged in assays) VHH: EVQLVESGGGLVQPGGSLRLSCAASGFTFSTNIMTWVRQAPGKGLEWISTINSGGGTTTYADSVRGRFTISRDNAKNMLYLQMSSLKPEDTALYYCITPRGVKGRGTQVTVSS",no binding (tested: 147 nM),no binding (tested: 147 nM),,,,Fold Cho P2X7/wt (phage ELISA) (mouse P2X7 [6]): 20 fold
"P2X7PMP20A11 (VHH, family 24; on phage or c-myc/His6-tagged in assays) VHH: EVQLVESGGRVMQTGGSLRLSCAASGHTFNDYNMGWFRQAPGKELEFLAGINWSGMSTWYADSVKDRFTISRDNNKNTVFLQMNSLEPGDTAVYYCAARQWISTIILTAPSQYDYWGQGTQVTVSS",no binding (tested: 147 nM),no binding (tested: 147 nM),,,,Fold Cho P2X7/wt (phage ELISA) (mouse P2X7 [6]): 11 fold
